Test results published in patent publication US20210284747A1 (CAPELLA BIOSCIENCE, published 2021).
Read-outs that look alike come from different tables or passages of the source.

Legend:
[1] = molecular target: T1, Human LIGHT stably expressed on EL4 cells (EL4-LIGHT) (human, UniProt O43557 1-240); assay: flow cytometry, EL4-LIGHT cells, against F19 and F23
T1 construct: whole, on cells; also called membrane LIGHT

[2] = molecular target: Full length LIGHT A190S on HEK293FF cells (Homo sapiens (Human), UniProt O43557 1-240); assay: flow cytometry, HEK293FF, mAb at EC50
Chain of Full length LIGHT A190S on HEK293FF cells (O43557 whole entry A190S): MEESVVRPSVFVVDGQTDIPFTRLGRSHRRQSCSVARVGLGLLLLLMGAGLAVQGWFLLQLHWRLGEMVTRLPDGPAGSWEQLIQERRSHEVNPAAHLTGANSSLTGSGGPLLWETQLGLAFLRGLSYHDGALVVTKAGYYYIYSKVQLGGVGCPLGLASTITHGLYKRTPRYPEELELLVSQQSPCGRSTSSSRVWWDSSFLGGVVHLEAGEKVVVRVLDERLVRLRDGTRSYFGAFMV
Method: (§1) The day of transfection the cells were seeded in a 24-well plate at 0.6×10⁶ cells/well. Lipofectamine 2000 (ThermoFisher scientific), 3 ul, was mixed with 50 μl OptiMEM medium (GIBCO) and then added to 50 μl Opti-MEM medium containing 3 ug plasmid DNA and incubated for 20 min at RT to form DNA-Lipofectamine 2000 complexes which were then added to the HEK293FF cells and incubated at 37° C., 5% CO₂ for 24 hours. For each construct, in duplicate, 0.60×10⁶ cells/well were used in a 96 well round bottom plate. Cells were centrifuged for 3 minutes at 300×g at 4° C., the supernatant discarded and the cells washed with 150 μl FACS buffer (0.5% FBS in phosphate buffered saline). This process was repeated 3 times. […] The wells were washed 3 times as above and 50 μl/well of goat anti-human IgG FITC (1:1500 dilution in FACS buffer, SIGMA F9512-2ML) or goat anti-mouse APC (1/500 dilution in FACS buffer, BDBioscience 550826), as appropriate, was added to the wells and incubated for 30 min at 4° C. protected from the light, with shaking. The cells were then washed as above, resuspended in 100 μl of FACS buffer and binding of the antibodies to the constructs was measured using flow cytometry and a total of 10,000 cells were acquired for each sample. Controls of buffer and secondary antibody only as well as HEK293FF non transfected cells were also used.

[3] = molecular target: Full length LIGHT T191A on HEK293FF cells (Homo sapiens (Human), UniProt O43557 1-240); assay: flow cytometry, HEK293FF, mAb at EC50
Chain of Full length LIGHT T191A on HEK293FF cells (O43557 whole entry T191A): as the sequence (O43557 whole entry A190S) above, with S190A, T191A counted along it
Method: as §1

[4] = molecular target: Full length LIGHT G188A on HEK293FF cells (Homo sapiens (Human), UniProt O43557 1-240); assay: flow cytometry, HEK293FF, mAb at EC50
Chain of Full length LIGHT G188A on HEK293FF cells (O43557 whole entry G188A): as the sequence (O43557 whole entry A190S) above, with G188A, S190A counted along it
Method: as §1

[5] = molecular target: Full length LIGHT R195A on HEK293FF cells (Homo sapiens (Human), UniProt O43557 1-240); assay: flow cytometry, HEK293FF, mAb at EC50
Chain of Full length LIGHT R195A on HEK293FF cells (O43557 whole entry R195A): as the sequence (O43557 whole entry A190S) above, with S190A, R195A counted along it
Method: as §1

[6] = molecular target: Full length LIGHT S193A on HEK293FF cells (Homo sapiens (Human), UniProt O43557 1-240); assay: flow cytometry, HEK293FF, mAb at EC50
Method: as §1

[7] = molecular target: T2, Human LIGHT-32L, on II23 cells (human, UniProt O43557 1-240); assay: flow cytometry on II23-LIGHT 32L cells, 4 ug mAb in 100 uL, goat anti-human Fc gamma-PE; signal as % of the commercial anti-LIGHT-PE
T2 construct: also called II23-LIGHT 32L
T2 chain: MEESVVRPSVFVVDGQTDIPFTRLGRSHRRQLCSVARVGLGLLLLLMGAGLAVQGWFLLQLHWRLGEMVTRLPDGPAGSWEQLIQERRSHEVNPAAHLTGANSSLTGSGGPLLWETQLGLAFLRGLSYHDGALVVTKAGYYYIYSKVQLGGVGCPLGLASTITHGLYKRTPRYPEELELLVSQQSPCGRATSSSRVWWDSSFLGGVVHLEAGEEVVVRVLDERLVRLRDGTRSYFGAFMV
Method: The cells were suspended at 1×10⁷ cells/ml and 100 uL aliquots were placed into wells of a 96-well plate, the cells spun down and washed in FACS buffer at 1800 rpm for 2 min. The cells were blocked with 1:100 dilution of anti-CD16/CD32 (eBioscience, San Diego, USA) in FACS buffer for 20 min at room temperature and then washed 1× in FACS buffer at 1800 rpm for 2 min. The cells were then resuspended in 100 uL FACS buffer+4 ug anti-membrane LIGHT mAbs or anti-LIGHT-PE (eBioscience, lot: E01621-1632) for 30 min in the dark at room temperature, followed by washing 1× in FACS buffer at 1800 rpm for 2 min and then resuspended in 100 uL FACS buffer plus 1:100 goat anti-human Fcγ-PE secondary antibody or no secondary antibody at 4° C. in the dark for 30 min. The cells were again washed 1× in FACS buffer at 1800 rpm for 2 min and fixed in 200 uL 2% paraformaldehyde overnight at 4° C. and read on a flow cytometer.

[8] = molecular target: T1, Human LIGHT stably expressed on EL4 …; assay: KD calculated from the EC50 on EL4-LIGHT cells (Table 7)
[9] = molecular target: T3, LIGHT without residues 81-84, stably expressed on EL4 cells (EL4-NC-LIGHT); assay: cell-based or functional assay
[10] = molecular target: T3, LIGHT without residues 81-84, stably …; assay: cell-based or functional assay; remark: listed apart in the source
[11] = molecular target: T1, Human LIGHT stably expressed on EL4 …; assay: flow cytometry, EL4-LIGHT cells
Method: The EC50 of the 7 mAbs were calculated from binding to EL4-LIGHT cells (FIG. 1). […] Non-linear regression analysis was performed to determine the functional binding affinity measurement or EC50 for each mAb. A range of functional affinities was observed.

[12] = molecular target: T1, Human LIGHT stably expressed on EL4 …; assay: flow cytometry competition on EL4-LIGHT cells, co-incubation 40 min 4 C; blocked ligand DcR3-Fc-AF647 0.8 ug/ml; displacement is partial
Method: EL4-LIGHT cells were co-incubated with Alexa Fluor 647 conjugated DcR3-Fc (DcR3-Fc-AF647; 0.8 μg/ml) and graded concentrations (31 μg/ml to 128 μg/ml) of anti-membrane LIGHT antibodies (3B04, 03D12 and 02B111) for 40 min at 4° C. A control, of a mAb that binds both soluble and membrane LIGHT was included (F19 from EP2292663). The samples were washed three times and flow cytometry analysis was performed. Specific mean fluorescence intensity (MFI) obtained from the binding of DcR3-Fc-AF647 to LIGHT on EL4 cells were used to determine the levels of competition binding.

T1 sequence (O43557 whole entry): as the sequence (O43557 whole entry A190S) above, with S190A counted along it

B1: 3B04 chimeric IgG4 mAb (antibody, V domains shown)
VH: QVQLQQPGAELVRPGASVTLSCKASGYTFTDYEMHWVKQTPVHGLEWIGEIDPETGDTAYSQKFKGKATLTADKSSSTAYMEFRSLTSEDSAVYYCSRETDYFFDYWGQGTTLTVSS
VL: DIQMTQTPASLSASVGETVTITCGASENIYGALNWYQRKQGKSPQLLIYGATNLADGMSSRFSGSGSGRQYSLKISSLHPDDFATYYCQNVLTTPWTFGGGTKLEIK
notes: also called Parental 3B04
- binding ratio, mAb to LIGHT trimer [1]: 1 mAb per LIGHT trimer
- % of WT binding [2]: 68%
- % of WT binding [3]: 2%
- % of WT binding [4]: 6%
- % of WT binding [5]: 1%
- % of WT binding [6]: 0%
- binding result [7]: binds
- Kd [8]: 100 pM
- IC50, inhibition of IL-8 secretion, HT-29 + EL4-NC-LIGHT cells [9]: 50 pM
- IC50, inhibition of IL-8 secretion, HT-29 + EL4-NC-LIGHT cells [10]: 200 pM
- EC50 [11]: 95 pM
- IC50 [12]: 0.02 µg/mL

B2: 3D12 chimeric IgG4 mAb (antibody, V domains shown)
VH: QVQLQQPGAELVRPGASVTLSCKASDYTFTDSEIHWVKQTPVHGLEWIGEIDPETGGTAYNQKFKGKATLTADKSSSTAYMELRSLTSEDSAVYYCSRETDYFFDYWGQGTTLTVSS
VL: DIQMTQSPASLSASVGETVTITCGASENIYGALNWYQRKQGKSPQLLIYGATNLADGMSSRFSGSGSGRQYSLKISSLHPDDVATYYCQNVLSTPWTFGGGTKLEIK
notes: Chimeric human IgG4 (S-to-P, L-to-E) with human CL, as m1; also called Parental 3D12; 03D12
- binding ratio, mAb to LIGHT trimer [1]: 1 mAb per LIGHT trimer
- % of WT binding [2]: 82%
- % of WT binding [3]: 8%
- % of WT binding [4]: 20%
- % of WT binding [5]: 25%
- % of WT binding [6]: 0%
- binding result [7]: binds
- Kd [8]: 70 pM
- IC50, inhibition of IL-8 secretion, HT-29 + EL4-NC-LIGHT cells [9]: 320 pM
- IC50, inhibition of IL-8 secretion, HT-29 + EL4-NC-LIGHT cells [10]: 100 pM
- EC50 [11]: 70 pM
- IC50 [12]: 0.031 µg/mL
